Measured values reported in article PMC10385607, “Optimization and Characterization of Novel ALCAM-Targeting Antibody Fragments for Transepithelial Delivery” (Pharmaceutics, 2023).

Legend:
[1] = target: T1, Human ALCAM (28–501)-6xhistidine tag (human, UniProt Q13740); assay: ELISA; CD6 competition ELISA: plate coated with hALCAM (5 µg/mL in PBS); fixed murine CD6-Fc (0.25 µg/mL) with antibody 2000 nM to 0.002 nM in PBS, 2 h RT; bound CD6-Fc detected with HRP-coupled antihuman IgG; conditions: both partners purified
T1 construct: human ALCAM, residues 28-501, all five extracellular immunoglobulin domains; also called hALCAM; source: CHO cells, in-house, purified (Ni-NTA agarose)

[2] = target: T1, Human ALCAM (28–501)-6xhistidine tag; assay: SPR; BiaCore3000; CM5 chip coated with hALCAM at 800 RU; flow 10 µL/min; single-cycle, sequential injection of scFv at 30, 60, 120 and 240 nM; conditions: both partners purified
[3] = target: T2, Human ALCAM (28–501)-6xhistidine tag (human, UniProt Q13740 28-501); assay: ELISA; CD6 competition ELISA: plate coated with hALCAM (5 µg/mL in PBS); fixed murine CD6-Fc (0.25 µg/mL) with antibody 2000 nM to 0.002 nM in PBS, 2 h RT; bound CD6-Fc detected with HRP-coupled antihuman IgG; conditions: both partners purified
T2 construct: human ALCAM, residues 28-501, all five extracellular immunoglobulin domains; also called hALCAM; source: CHO cells, in-house, purified (Ni-NTA agarose)
T2 sequence (looked up): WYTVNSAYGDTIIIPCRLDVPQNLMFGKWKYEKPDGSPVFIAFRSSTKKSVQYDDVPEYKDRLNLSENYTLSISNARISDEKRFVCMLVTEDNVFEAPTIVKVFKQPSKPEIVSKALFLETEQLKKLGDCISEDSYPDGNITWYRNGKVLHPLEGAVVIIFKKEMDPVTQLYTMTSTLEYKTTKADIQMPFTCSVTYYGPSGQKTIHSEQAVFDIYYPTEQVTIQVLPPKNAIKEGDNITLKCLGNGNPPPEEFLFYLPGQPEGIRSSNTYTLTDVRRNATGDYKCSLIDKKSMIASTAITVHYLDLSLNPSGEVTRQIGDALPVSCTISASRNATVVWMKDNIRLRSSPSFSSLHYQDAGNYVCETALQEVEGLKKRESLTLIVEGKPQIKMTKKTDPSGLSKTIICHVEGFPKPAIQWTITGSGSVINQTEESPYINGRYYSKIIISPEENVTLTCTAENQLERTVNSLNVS

[4] = target: T1, Human ALCAM (28–501)-6xhistidine tag; assay: as above; conditions: both partners purified; remark: listed apart in the source
[5] = target: Murine ALCAM (Mus musculus, UniProt Q61490); assay: cell-based or functional assay
Chain of Murine ALCAM (Q61490 28-527): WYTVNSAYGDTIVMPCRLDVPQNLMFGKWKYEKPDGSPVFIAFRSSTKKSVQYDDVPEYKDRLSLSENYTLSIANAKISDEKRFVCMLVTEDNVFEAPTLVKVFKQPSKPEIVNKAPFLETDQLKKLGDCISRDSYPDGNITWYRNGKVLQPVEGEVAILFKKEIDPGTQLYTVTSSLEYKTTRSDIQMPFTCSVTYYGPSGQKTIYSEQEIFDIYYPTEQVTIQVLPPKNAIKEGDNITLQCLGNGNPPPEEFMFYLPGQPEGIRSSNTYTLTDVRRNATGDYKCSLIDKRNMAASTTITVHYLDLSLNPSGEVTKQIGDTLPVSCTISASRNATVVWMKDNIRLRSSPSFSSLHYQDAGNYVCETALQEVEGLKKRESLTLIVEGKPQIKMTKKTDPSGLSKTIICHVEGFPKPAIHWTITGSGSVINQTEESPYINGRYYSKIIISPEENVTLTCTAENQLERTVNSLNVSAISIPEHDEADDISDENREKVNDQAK

[6] = target: T3, Monkey ALCAM (Macaca fascicularis (cynomolgus monkey), UniProt G7NZQ8); assay: ELISA; plate coated with human, mouse, rat or monkey ALCAM (5 µg/mL in PBS); scFv V2D7 1:3 dilutions from 1000 nM to 0.051 nM in PBS, 2 h RT; detected with HRP-coupled protein A; conditions: both partners purified
T3 construct: cynomolgus monkey ALCAM, recombinant; also called cynomolgus monkey ALCAM; source: bought: R&D systems (10027-AL-100)

[7] = target: T4, Rat ALCAM (Rattus norvegicus, UniProt O35112); assay: as above; conditions: both partners purified
T4 construct: rat ALCAM, recombinant; source: bought: Sino Biological (80221-R08H-50)
T4 sequence (O35112 28-527): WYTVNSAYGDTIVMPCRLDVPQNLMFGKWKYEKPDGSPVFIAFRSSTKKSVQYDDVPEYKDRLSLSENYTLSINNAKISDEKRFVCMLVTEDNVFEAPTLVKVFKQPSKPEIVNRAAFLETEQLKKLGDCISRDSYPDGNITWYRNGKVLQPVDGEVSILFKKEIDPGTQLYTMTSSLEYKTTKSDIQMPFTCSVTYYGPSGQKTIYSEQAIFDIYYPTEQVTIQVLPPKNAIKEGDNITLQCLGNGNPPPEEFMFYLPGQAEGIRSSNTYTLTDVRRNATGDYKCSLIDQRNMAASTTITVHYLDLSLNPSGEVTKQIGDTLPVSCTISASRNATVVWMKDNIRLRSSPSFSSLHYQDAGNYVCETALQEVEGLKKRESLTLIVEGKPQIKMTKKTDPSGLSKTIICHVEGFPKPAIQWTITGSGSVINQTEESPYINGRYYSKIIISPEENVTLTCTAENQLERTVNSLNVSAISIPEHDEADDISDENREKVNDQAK

B1: scFv IF8 (scFv, V domains shown)
VH: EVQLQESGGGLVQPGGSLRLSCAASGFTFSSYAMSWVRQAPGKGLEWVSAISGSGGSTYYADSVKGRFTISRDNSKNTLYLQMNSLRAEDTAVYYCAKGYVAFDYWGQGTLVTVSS
VL: SSELTQDPAVSVALGQTVRITCQGDSLRSYYASWYQQKPGQAPVLVIYGKNNRPSGIPDRFSGSSSGNTASLTITGAQAEDEADYYCNSSPPFSAEVVFGGGTKLTVL
notes: VH of IF8 (heavy chain DP47, ETH-2 library); VL of IF8 (light chain DPL16, ETH-2 library); CDR1 QGDSLRSYYAS, CDR2 GKNNRPS, CDR3 NSSPPFSAEVV; Only CDRs and linker are printed; also called IF8 scFv; parental scFv IF8; source: CHO cells, transient gene expression, purified (Protein A)
[1]
  IC50: 63.6 nM
[2]
  Kd: 24.1 nM

B2: Murine CD6-Fc (Fc fusion, mouse, UniProt Q61003 17-398, looked up)
chain: GLPSPAPSGQHKNGTIPNMTLDLEERLGIRLVNGSSRCSGSVKVLLESWEPVCAAHWNRAATEAVCKALNCGDSGKVTYLMPPTSELPPGATSGNTSSAGNTTWARAPTERCRGANWQFCKVQDQECSSDRRLVWVTCAENQAVRLVDGSSRCAGRVEMLEHGEWGTVCDDTWDLQDAHVVCKQLKCGWAVKALAGLHFTPGQGPIHRDQVNCSGTEAYLWDCPGRPGDQYCGHKEDAGVVCSEHQSWRLTGGIDSCEGQVEVYFRGVWSTVCDSEWYPSEAKVLCRSLGCGSAVARPRGLPHSLDGRMYYSCKGQEPALSTCSWRFNNSNLCSQSRAARVVCSGSQRHLNLSTSEVPSRVPVTIESSVPVSVKDKDSQGLT
notes: mouse CD6, recombinant Fc fusion; source: bought: R&D Systems (727-CD)
[3]
  binding result: binds

B3: scFv V2D7 (scFv, V domains shown)
VH: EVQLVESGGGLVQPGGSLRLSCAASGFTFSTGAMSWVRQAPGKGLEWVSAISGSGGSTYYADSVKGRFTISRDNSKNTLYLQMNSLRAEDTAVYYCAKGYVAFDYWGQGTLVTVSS
VL: SSVLTQPPSVSVAPGQTARITCQGDSLRSGYASWYQQKPGQAPVLVVYGKNNRPSGIPERFSGSSSGNTATLTISRVEAGDEADYYCNSSPPFSAEVVFGGGTKLTVL
notes: VH of V2D7: as the VH of OPT with changed CDR1; linker; VL of V2D7: as the VL of OPT with changed CDR1; CDR1 QGDSLRSGYAS, CDR2 GKNNRPS, CDR3 NSSPPFSAEVV; also called V2D7 scFv; source: CHO cells, transient gene expression, purified (Protein A)
[4]
  IC50: 20.7 ± 11.8 nM
[5]
  IC50 of DC transmigration across LEC monolayers (DC TM; blocks ALCAM–ALCAM between DCs and LECs): > 100 nM
[6]
  binding result: binds
[7]
  binding result: binds

B4: scFv V200G1 (scFv, V domains shown)
VH: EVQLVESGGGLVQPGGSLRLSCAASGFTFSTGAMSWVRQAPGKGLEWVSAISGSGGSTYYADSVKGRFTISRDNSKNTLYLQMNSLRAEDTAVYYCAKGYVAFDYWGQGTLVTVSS
VL: SSVLTQPPSVSVAPGQTARITCQGDSLRSGYASWYQQKPGQAPVLVVYGKTGRPSGIPERFSGSSSGNTATLTISRVEAGDEADYYCNSSPPFSAEVVFGGGTKLTVL
notes: VH of V200G1: as the VH of V2D7, i.e. the VH of OPT with changed CDR1; linker; VL of V200G1: as the VL of OPT with changed CDR1 and CDR2; CDR1 QGDSLRSGYAS, CDR2 GKTGRPS, CDR3 NSSPPFSAEVV; source: CHO cells, transient gene expression, purified (Protein A)
[2]
  binding result: binds

B5: scFv OPT (scFv, V domains shown)
VH: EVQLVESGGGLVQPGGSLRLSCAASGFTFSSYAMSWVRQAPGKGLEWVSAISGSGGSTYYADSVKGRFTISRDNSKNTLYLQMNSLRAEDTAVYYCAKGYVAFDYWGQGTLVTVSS
VL: SSVLTQPPSVSVAPGQTARITCQGDSLRSYYASWYQQKPGQAPVLVVYGKNNRPSGIPERFSGSSSGNTATLTISRVEAGDEADYYCNSSPPFSAEVVFGGGTKLTVL
notes: linker; CDR1 QGDSLRSYYAS, CDR2 GKNNRPS, CDR3 NSSPPFSAEVV; Only CDRs and linker are printed; also called framework-optimized scFv OPT; source: CHO cells, transient gene expression, purified (Protein A)
[2]
  fold improvement of Kd against scFv IF8: 2 fold

B6: db V20C10NC (other)
VH: EVQLVESGGGLVQPGGSLRLSCAASGFTFSTGAMSWVRQAPGKGLEWVSAISGTGGTTYYADSVKGRFTISRDNSKNTLYLQMNSLRAEDTAVYYCAKGYVAFDYWGQGTLVTVSS
VL: SSVLTQPPSVSVAPGQTARITCQGDSLRSGYASWYQQKPGQAPVLVVYPKMSRPSGIPERFSGSSSGNTATLTISRVEAGDEADYYCNSSPPFSAEVVFGGGTKLTVL
notes: linker; Bivalent two-chain diabody; also called V20C10NC in db format; source: CHO cells, transient gene expression, purified (Protein A)
[1]
  binding result: binds

B7: scFv V20C10NC (scFv, V domains shown)
VH: EVQLVESGGGLVQPGGSLRLSCAASGFTFSTGAMSWVRQAPGKGLEWVSAISGTGGTTYYADSVKGRFTISRDNSKNTLYLQMNSLRAEDTAVYYCAKGYVAFDYWGQGTLVTVSS
VL: SSVLTQPPSVSVAPGQTARITCQGDSLRSGYASWYQQKPGQAPVLVVYPKMSRPSGIPERFSGSSSGNTATLTISRVEAGDEADYYCNSSPPFSAEVVFGGGTKLTVL
notes: VH of V20C10NC: as the VH of OPT with changed CDR1 and CDR2; linker; VL of V20C10NC: as the VL of OPT with changed CDR1 and CDR2; CDR1 QGDSLRSGYAS, CDR2 PKMSRPS, CDR3 NSSPPFSAEVV; Histidines in the CDR2 loops of clone V20C10 were mutated to threonine (VH) and serine (VL), giving V20C10NC; source: CHO cells, transient gene expression, purified (Protein A)
[2]
  binding result: binds
